The results in this text go back to patent US20070231329A1.

Assay [1] concerns the target extracellular region of human F158 FcγRIIIa with C-terminal 6x His-tag and GST-tag (human) (UniProt P08637). The experiment in a line: SPR, receptor immobilized, antibody flowed. (In general: SPR reads the build-up and loss of mass on a sensor chip optically.)
Assay [2] addresses extracellular region of human V158 FcγRIIIa with C-terminal 6x His-tag and GST-tag (human) (UniProt P08637). The experiment in a line: SPR, His-tagged receptor immobilized, antibody flowed.
In assay [3] the target is FcγRIIIa on human PBMCs expressing heterozygous V158/F158 FcγRIIIa (human) (UniProt P08637). The experiment in a line: cell-based or functional assay.
Assay [4] addresses extracellular region of human V158 FcγRIIIa with C-terminal 6x His-tag and GST-tag (human) (UniProt P08637). As to the kind of experiment: SPR.

Chain of extracellular region of human F158 FcγRIIIa with C-terminal 6x His-tag and GST-tag (human) (P08637 17-208, chain 1 of 2): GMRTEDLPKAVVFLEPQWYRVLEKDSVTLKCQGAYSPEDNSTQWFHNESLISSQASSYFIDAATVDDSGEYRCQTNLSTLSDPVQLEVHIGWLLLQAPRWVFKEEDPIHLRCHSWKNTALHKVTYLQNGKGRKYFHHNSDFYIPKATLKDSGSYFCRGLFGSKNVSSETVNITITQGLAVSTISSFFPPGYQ
Chain of extracellular region of human F158 FcγRIIIa with C-terminal 6x His-tag and GST-tag (human) (P08515 whole entry, chain 2 of 2, further chain): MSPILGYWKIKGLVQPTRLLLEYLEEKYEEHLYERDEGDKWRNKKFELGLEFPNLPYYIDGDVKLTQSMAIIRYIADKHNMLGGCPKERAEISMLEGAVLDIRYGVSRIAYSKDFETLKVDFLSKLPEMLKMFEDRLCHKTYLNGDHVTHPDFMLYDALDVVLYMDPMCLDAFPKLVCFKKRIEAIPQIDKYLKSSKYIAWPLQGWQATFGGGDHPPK
Chain of extracellular region of human V158 FcγRIIIa with C-terminal 6x His-tag and GST-tag (human) (P08637 17-208 F176V, chain 1 of 2): as the sequence (P08637 17-208, chain 1 of 2) above, with F160V counted along it
Chain of extracellular region of human V158 FcγRIIIa with C-terminal 6x His-tag and GST-tag (human) (P08515 whole entry, chain 2 of 2, further chain): as the sequence (P08515 whole entry, chain 2 of 2, further chain) above

As to “S298A/E333A/K334A alemtuzumab (antibody)”, the Kd in assay [1] amounted to 156 nM; in assay [2] it was 39 nM.
The corresponding values for I332E alemtuzumab (antibody) are 72 nM and 31 nM.
The corresponding values for V264I alemtuzumab (antibody) are 550 nM and 64 nM.
As to V264I/I332E alemtuzumab (antibody), the Kd in assay [1] was found to be 52 nM. In assay [3], the ADCC, DoHH-2 target cells: EC50 is 4 ng/mL and the ADCC, DoHH-2 target cells: log (EC50) was 0.6 log (ng/ml). The substance also yielded a Kd in assay [2] of 17 nM.
For E272R alemtuzumab (antibody), in assay [4], the Fold WT V158 FcγRIIIa came to 1.38 fold.
As for S239D/I332E alemtuzumab (antibody), in assay [3], the ADCC, DoHH-2 target cells: EC50 worked out at 3 ng/mL; the ADCC, DoHH-2 target cells: Fold WT worked out at 3.3 fold; the ADCC, DoHH-2 target cells: log (EC50) was 0.49 log (ng/ml).
S304T alemtuzumab (antibody): the Fold WT V158 FcγRIIIa in assay [4] turned out to be 12.8 fold.
V284E alemtuzumab (antibody) displayed a Fold WT V158 FcγRIIIa in assay [4] of 1.51 fold.
The same measure, in the same setting: the same measure for E283H alemtuzumab (antibody): 2.31 fold.
With S298A alemtuzumab (antibody), the results for the Kd in assay [1] and in assay [2] were 285 nM and 52 nM, respectively.

In general, Kd refers to the equilibrium constant for the complex coming apart. Higher therefore signals a looser complex.
